Tests used:
[1] = biological target: T1, non-reduced CFHR4; assay: ELISA, non-reduced antigen
T1 construct: not reduced; also called CFHR4 (NON-REDUCED)

[2] = biological target: T2, non-reduced CFHR1; assay: ELISA, non-reduced antigen
T2 construct: also called CFHR1 (NON-REDUCED)
T2 chain: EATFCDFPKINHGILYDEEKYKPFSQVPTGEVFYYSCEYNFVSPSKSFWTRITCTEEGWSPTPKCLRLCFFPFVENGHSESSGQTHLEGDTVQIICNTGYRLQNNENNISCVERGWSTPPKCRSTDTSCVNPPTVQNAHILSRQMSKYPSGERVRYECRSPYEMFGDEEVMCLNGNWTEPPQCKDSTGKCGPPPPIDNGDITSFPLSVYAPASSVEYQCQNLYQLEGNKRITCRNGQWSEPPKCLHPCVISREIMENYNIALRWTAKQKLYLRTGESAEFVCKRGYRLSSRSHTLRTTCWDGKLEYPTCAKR

[3] = biological target: T3, reduced CFH (Homo sapiens (Human), UniProt P08603 860-1231, limits assumed); assay: ELISA on reduced CFH after heating the mAb (70 C, 1 h, as Figure 16)
T3 construct: also called CFH (reduced)
T3 sequence: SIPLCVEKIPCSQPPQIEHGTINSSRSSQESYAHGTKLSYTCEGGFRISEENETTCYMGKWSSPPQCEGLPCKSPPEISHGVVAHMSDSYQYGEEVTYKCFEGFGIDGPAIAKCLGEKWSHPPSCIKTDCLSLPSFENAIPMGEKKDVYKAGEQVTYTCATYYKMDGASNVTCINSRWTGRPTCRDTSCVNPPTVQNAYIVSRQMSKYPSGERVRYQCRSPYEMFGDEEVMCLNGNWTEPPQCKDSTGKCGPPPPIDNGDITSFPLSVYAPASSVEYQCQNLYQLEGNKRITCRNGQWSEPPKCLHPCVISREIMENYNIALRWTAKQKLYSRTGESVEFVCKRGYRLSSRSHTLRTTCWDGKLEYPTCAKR

[4] = biological target: T4, reduced CFHR3 (UniProt Q02985 19-330, limits assumed); assay: ELISA, reduced antigen
T4 sequence (looked up): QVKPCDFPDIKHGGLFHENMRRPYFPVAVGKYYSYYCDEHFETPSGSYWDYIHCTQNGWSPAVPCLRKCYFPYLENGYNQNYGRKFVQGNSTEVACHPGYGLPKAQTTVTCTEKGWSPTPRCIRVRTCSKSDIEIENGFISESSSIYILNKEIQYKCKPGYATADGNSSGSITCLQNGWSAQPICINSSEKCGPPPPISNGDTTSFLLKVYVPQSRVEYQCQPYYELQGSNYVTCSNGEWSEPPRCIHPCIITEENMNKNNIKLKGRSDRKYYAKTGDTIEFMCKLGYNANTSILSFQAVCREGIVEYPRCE

[5] = biological target: T5, reduced CFHR5 (UniProt Q9BXR6 19-569, limits assumed); assay: ELISA, reduced antigen
T5 sequence (looked up): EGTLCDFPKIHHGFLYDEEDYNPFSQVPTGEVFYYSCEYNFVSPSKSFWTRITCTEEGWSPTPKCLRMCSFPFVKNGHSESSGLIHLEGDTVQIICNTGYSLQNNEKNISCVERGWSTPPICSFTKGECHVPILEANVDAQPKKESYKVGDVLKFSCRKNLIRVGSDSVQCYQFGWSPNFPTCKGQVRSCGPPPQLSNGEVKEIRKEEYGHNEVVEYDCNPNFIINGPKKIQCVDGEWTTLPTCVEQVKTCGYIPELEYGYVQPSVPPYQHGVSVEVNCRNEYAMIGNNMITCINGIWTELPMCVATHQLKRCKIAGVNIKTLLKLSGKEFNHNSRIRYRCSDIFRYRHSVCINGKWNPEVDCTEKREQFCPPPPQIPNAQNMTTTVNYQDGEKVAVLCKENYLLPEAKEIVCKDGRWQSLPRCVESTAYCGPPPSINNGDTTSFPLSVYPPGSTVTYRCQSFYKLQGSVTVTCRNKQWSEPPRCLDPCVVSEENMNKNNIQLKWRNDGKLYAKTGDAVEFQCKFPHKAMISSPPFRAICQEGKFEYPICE

[6] = biological target: T3, reduced CFH; assay: ELISA, reduced antigen
[7] = biological target: T6, reduced CFHR2 (UniProt P36980 19-270, limits assumed); assay: ELISA, reduced antigen
T6 sequence (looked up): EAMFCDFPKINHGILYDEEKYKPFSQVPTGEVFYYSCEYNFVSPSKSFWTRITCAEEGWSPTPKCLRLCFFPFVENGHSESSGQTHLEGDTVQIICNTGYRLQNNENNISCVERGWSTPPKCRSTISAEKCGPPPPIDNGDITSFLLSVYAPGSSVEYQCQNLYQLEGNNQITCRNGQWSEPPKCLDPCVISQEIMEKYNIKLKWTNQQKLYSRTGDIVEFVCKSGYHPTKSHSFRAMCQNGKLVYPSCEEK

[8] = biological target: T7, reduced CFHR1 (UniProt Q03591 19-330, limits assumed); assay: ELISA, reduced antigen
T7 sequence (looked up): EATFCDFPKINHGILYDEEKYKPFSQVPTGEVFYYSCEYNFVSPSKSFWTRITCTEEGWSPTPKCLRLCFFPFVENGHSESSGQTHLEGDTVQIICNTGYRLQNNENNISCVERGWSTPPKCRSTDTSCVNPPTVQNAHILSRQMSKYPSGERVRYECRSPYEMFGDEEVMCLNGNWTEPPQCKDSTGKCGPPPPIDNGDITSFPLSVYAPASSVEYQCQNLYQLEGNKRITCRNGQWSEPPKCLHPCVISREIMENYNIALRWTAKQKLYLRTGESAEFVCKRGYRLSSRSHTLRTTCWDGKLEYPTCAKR

B1: ATL4717 (antibody, human IgG1, kappa, V domains shown)
VH: QVQLVESGGGMVQPGRSLRLSCAASGFTFSIYGMHWVRQAPGRGLEWVAVMSFDGKTKYYADSVKGRFTISRDNSKNTLYLQMNSLRRVDTAVYYCAKGGATAAVFDSWGQGTLVTVSS
VL: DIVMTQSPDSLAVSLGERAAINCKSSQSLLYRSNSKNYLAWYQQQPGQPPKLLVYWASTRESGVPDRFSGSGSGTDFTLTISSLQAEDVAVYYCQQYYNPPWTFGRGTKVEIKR
notes: Human IgG1; also called ATL0004717; ATL04717
fold change vs isotype at 1 ug/ml [1]: 0.9 fold | fold change vs isotype at 1 ug/ml [2]: 10.7 fold | Harsh Heat challenge ELISA value [3]: 0.04 | binding result [4]: no binding (tested: 1 ug/ml) | fold change vs isotype at 1 ug/ml [4]: 0.9 fold | binding result [5]: no binding (tested: 1 ug/ml) | fold change vs isotype at 1 ug/ml [5]: 1 fold | fold change vs isotype at 1 ug/ml [6]: 17.6 fold | fold change vs isotype at 1 ug/ml [7]: 10.7 fold | fold change vs isotype at 1 ug/ml [8]: 23.8 fold

B2: ATL5170 (antibody, human IgG1, kappa, V domains shown)
VH: QVQLVESGGGVVQPGRSLRLSCAASGFTFSNYGMHWVRQAPGKGLEWVAVTSFDGKTKYYADSVKGRFTISRDNSKNTLYLQMNSLRAEDTAVYYCAKGGATAAVLDSWGQGTLVTVSS
VL: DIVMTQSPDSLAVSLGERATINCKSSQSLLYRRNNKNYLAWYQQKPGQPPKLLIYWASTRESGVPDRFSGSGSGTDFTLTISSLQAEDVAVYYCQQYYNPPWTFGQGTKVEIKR
notes: IgG1; also called ATL_0005170
fold change vs isotype at 1 ug/ml [1]: 0.9 fold | fold change vs isotype at 1 ug/ml [2]: 8.4 fold | Harsh Heat challenge ELISA value [3]: 0.49 | fold change vs isotype at 1 ug/ml [4]: 1 fold | fold change vs isotype at 1 ug/ml [5]: 1.1 fold | fold change vs isotype at 1 ug/ml [6]: 18.1 fold | fold change vs isotype at 1 ug/ml [7]: 8.4 fold | fold change vs isotype at 1 ug/ml [8]: 23.1 fold
